The record followed here is patent US20030152959A1 (WISCONSIN ALUMNI RESEARCH FOUNDATION, published 2003).

The target of this assay is T1, estrogen receptor α (ERα) (human, UniProt P03372 1-595).
T1 construct: Used as 35S-methionine-labelled protein from rabbit reticulocyte lysate, as purified recombinant ERα, and in whole-cell extract of transfected COS cells; also called NR3A1
T1 sequence (looked up): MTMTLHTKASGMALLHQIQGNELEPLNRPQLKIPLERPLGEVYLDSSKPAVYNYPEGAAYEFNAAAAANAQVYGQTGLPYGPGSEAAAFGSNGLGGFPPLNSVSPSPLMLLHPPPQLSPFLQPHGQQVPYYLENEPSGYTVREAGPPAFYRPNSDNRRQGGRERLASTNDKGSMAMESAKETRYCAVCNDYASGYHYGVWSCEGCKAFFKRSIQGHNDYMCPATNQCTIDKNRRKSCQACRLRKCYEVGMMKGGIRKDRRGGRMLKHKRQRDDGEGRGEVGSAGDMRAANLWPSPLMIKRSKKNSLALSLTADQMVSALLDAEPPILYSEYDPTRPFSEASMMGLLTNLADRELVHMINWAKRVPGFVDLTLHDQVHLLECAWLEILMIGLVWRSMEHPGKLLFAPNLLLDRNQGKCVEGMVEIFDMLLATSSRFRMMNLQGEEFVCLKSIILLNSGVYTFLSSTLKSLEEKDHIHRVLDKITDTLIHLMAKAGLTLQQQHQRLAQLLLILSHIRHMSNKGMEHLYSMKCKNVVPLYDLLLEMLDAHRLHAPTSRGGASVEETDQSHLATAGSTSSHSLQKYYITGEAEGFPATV
Kind of assay: GST-fusion protein binding experiment with purified recombinant ERα (data referred to Johnston 1996 thesis).

B1: GST-TFIIB (other, UniProt Q00403 1-316, looked up)
chain: MASTSRLDALPRVTCPNHPDAILVEDYRAGDMICPECGLVVGDRVIDVGSEWRTFSNDKATKDPSRVGDSQNPLLSDGDLSTMIGKGTGAASFDEFGNSKYQNRRTMSSSDRAMMNAFKEITTMADRINLPRNIVDRTNNLFKQVYEQKSLKGRANDAIASACLYIACRQEGVPRTFKEICAVSRISKKEIGRCFKLILKALETSVDLITTGDFMSRFCSNLCLPKQVQMAATHIARKAVELDLVPGRSPISVAAAAIYMASQASAEKRTQKEIGDIAGVADVTIRQSYRLIYPRAPDLFPTDFKFDTPVDKLPQL
notes: not shown: glutathione S-transferase encoded by the pGEX vector
For the molecule B1, the binding result is reported as “binds”.
